Laboratory results: the domain aggregation screens of Martell et al. (2025)

Assay: soluble fraction after stress (log2 fold change); higher = more stays soluble; pooled small domains, quantitative proteomics
Conditions: stress: pH 4
Summary of the method: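 Small protein domains from pooled custom libraries were exposed to pH 4, then quantified with high-throughput quantitative proteomics. The fold change in how much of each domain remains soluble is read as aggregation propensity. It is given as log2, with higher values meaning more stayed soluble.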

Sequence	soluble fraction (log2)
HMLPGVPVVAGKTQSAATRILKAAGYAVSVVREEAFDGVTGTVLRTSPEAGSPLAPGSRVTLVVLQVV	-0.114
HMAVFSKKQIFDTAFALFESKGLEAITARNLGKALSSSPAPIYAHYSSITELKNELISVAKDR	-0.692
HMNQPRQRKVIFELIDERNALERVLMHFAHLEKQVEKIDERKYQVTLYYDKEDETEILIRVLSFG	-1.16
HMDMRLADLIGRDGITITFMRPSGKVEIDGEIYDAVSDVGLIDKNEEVEVIKFENAQLVVTKKNKN	0.108
HMLENSLDHIEGIGPKTKDTLLTYFKSVSKIKSANPSILAELIGAAKTKILLAAFEKEKTTS	0.17
HMALPRYFFRTRENGAVLFKTPVNNHQNRLEMHQIAAINIRNETVKPLGDTVLTDEETELIADWMRERKTV	-0.596
HMEDLGYVKVASQTAAIRKSAAVQAGQIGTVHEGETYRYLGEEEGWYLVEYNGQKAYISWDDGEL	-0.553
HMIEGETPEQTMERVSKDPEIVQILQDPVMQGILAQARENPAALQDHMKNPEVYKKINMLIAAGVIRT	-0.113
HMTEKMILKWKEALERMNDDFTTKDWLNVVIHEMGKSERTAYGWLSDMKRSGIIKDLGYGSWLKVLE	-0.2
HMELLPFEFARANRVLLRVNESDLVVSPDANHSAVTEILRLNNNIETIKSVDAEAFDKILSSIYSG	-2
HMELKYIDYDEALVVYAKTVTASGGGLSGVKDEGGIRKVLDFVQNDLYYPTFVDKLTYLVFGL	-0.155
HMFELTVGTPIRVIREPYFGKLGTVTELPAQLMVVESGTEVRVLKAKIEGEGEVLVPRANVEIIATG	-0.77
HMSVTDDQLRVFTNKSGTKIKAKIVEVSDDKVKLIRDDNKKFIVPINSLSEEDQDYLRDWVSNEAVEP	-0.0786
HMSNETKSAILNFAEKHHDFNIDDLFESLSKSMDINRSSLLWHLFKLVNSNVLIRTGRGMYAKV	-0.839
HMDFVKGDTVVFIDAFMPDHLMTIHKVQGEGILLDGNHKFALAHLIRHASTVELNAKRRLSLTEQS	-0.685
HMTTPAAISKIKKLEEAKRLLATTTYSMKEIAVKLKYKSHTHFGMDFKNNTGMTPAEYRKAIKAKREKQMN	0.173
HMKGSIFLDEATKMVDNSALKSLNTFLEEYARETNNQIFLISHQETPAEVTQIKLKKVGGETSYE	-0.0644
HMSLEEQNGAKDRQVEAYELLLKAQRALDQEDTAGFQAAMKDLEPLSSQLDAQGQTLYHELLPFVS	-0.246
HMTRVDALDQLAAIRFSSHIFAEDQDLRMVVVDGQRIGEGDIVRDEIRLEQITETGVIFEYQGERFPIDV	-2.21
HMDFGHWAAHKLEQMSEYRLRHGEAVAIGIALDVLYSVRQGLLARPAAERILSLLERLGFTLFDPELKS	-0.291
HMNLNIGNNIKNIRKSKNMTQTDFAELMGLSRSYIGDLENNRSNPSIKTLEAIARALDVPIVALIN	-0.726
HMTANPSTEEIMARVEAIPLPIKRLPPGQIVQAQTVAATVLRSNPGLDLAKAWKLAYATVTGQE	-0.00256
HMVEGTVKWFNDEKGFGFIEQEGGKDVFVHFSAINGSGRRTLHEGQRVTMEVTQGQKGPQAENVNP	-0.436
HMADTPQAYIRQMVQEAGADGIMLSTITDRLRARFKDFKVRDLGYAQMRQYMASTGTYDLEKSGRNFRVHL	0.181
HMPRENLAYTLIMDGIVQHKNLPRASVTEAWLKQELQKAGINDFRQVLIAGIDSKGQLYFQPKQK	-0.392
HMDPSDQLYTVPPSAEGLRLDLFLVQHVPHMTRALATQLTGAGQVRVNGRRAKKGDRLPSGAQVRLEQAP	-0.138

Sequence	soluble fraction (log2)
HMGQDLEAFLLKAVGQLDQGDGVTLDALLKVAVSNGGFVREVAEAKLDDMLDAGTLDEPRFGWFRVGAT	-1.68
HMKWGDTPTVEVPNLIGMKKKDLQTQLVDLKLDISGDGEKVIKQSPEAGAKVKEGSKIRIYFG	-0.0575
HMNDSGIIGVVINDHEKYEGHVLEDGFISSSLSALSREIDVAGYFMMVKTVVYEGFFQELKGIGNV	0.079
HMFAKVEGITGDILDKLQQQRGFLALSDKSSPEAIYDTFGVSKKVFKQAIGTLFKQQKISIEAEGIRLV	-0.0102
HMGRRSKAMLSSALDAVPGLGEMRRKALISQFGSLKKLRGATPEEIAAVPGIGPKLAAAVHEAVSG	0.131
HMVVVMEKNASSAEIEQVQERLRQAGFKIHLSQGVERTIIGAIGDRSQVDLGFLEALPGVEKVVPIMK	0.248
HMETVMYLRQIKRPQGIYLAIQESYYDSSKKQSRTRTIESIGYLDNLRKEYEDPIAFFSQKAAAMTSEKKK	-0.177
HMLEYIEPRTAVQIHGIKAKPELNGKRGMVMGYAPERMRYRVRIDVGEGTGGKESEEVYLKPENVIAVK	0.101
HMPQISQDDLMEAGLIVGKEAKQRRIKLGEILGIGYVNAKQLPKRLQLFQVAKSDFEQAVQQIDG	0.134
HMEKLSMLKIKELFRLAIEMNLSHRQIAQSLNVSHTVVNRYLKRFKKSNLSYETLLKLGDKEIISALYEH	-0.0551
HMSLTGFYNLTFKQADRLSVIDEAGEEVYKQAIAMGSTTKTIDLSALNAGVYFIRIYNGEVIAQEKIVLN	-0.958
HMKTNQINVSGLSKEKNFEVLESLDVYKFYNLFFLNKIKIDQLINSYNHIDNYSVFKKYPSSLIVKLSE	-0.0619
HMGQKETIVDLLKTNGTMTQLALAEAIYGDKNHGPNIYSVLMGRVNSGAVLRTGSQPAYYSLSG	0.22
HMQETPAMLAMKELPTEDEQRIYMMLQEDYDSVLLVKTIRNAFSQNPQLTRQQLLPIILTWLMT	-1.08
HMSLTEDELFHALTIYANREGINIGATELKYLLTHYARNLGKLIELINQVSQAATMQKKPITIPLIKHS	-0.251
HMVSKTEAMAVFIADKLQEGMVPANEILELYKGMQLSDRTIRNAKKQLGIVSIRKDGQWYWSL	-0.997
HMEEDPILVAQRFLNIFRQLHIFDQQRREEFNSMILALPPEIRGTFGVLPGGSVLQEYVDELEISKGMA	-1.33
HMKKNTEALDYYKKAGANFPEDEVISSEYLFRAAQLQEVLGKTDEAVAIYKDIKAKYPTTEIGLNVDKFIL	-0.181
HMSNTVEDLIDDIGTVTKDSKDKIDAARKAYDGLTEDQKKLVPDSVLKTLTDAEAAYAKLTK	0.191
HMKETLSINSTDFEVRRSSRRKRISVGFDTGTETFFIAAPTKLAGTDILRILGPQISRLMDRLT	-0.808
HMLPYGDRRRHTDNTISRIRELAAALDDSGIADRLNQDGYVTPEGKPFTYAGVRWIRYKYDISGPYERN	-0.364
HMGDSFLDHKKELQSMILSRLDLSREVPDEEIKDIIDELIIAQSKKLFLSLNDRGKLRQELFYSIRK	-0.906
HMNKEKLLEMFESMSIIIVQSLEEKEQTEDRIETELFNEAKTPRYSTLTKQDIQSVIRNILITVGV	-0.959
HMGYSDEIGEFIKKLRTENHLTQKEFADKYGVTYQAVSKWENGKNLPDMSLIKQMSEDFNIGIDELLDGEK	-0.454
HMNNENELSSIISKVLEENPAEKERFLNGEKKLAGFFMGKIMKATKGTADPKKAAQLLNEIL	0.271
HMSKLSVSSLSSPEVQNQLKAAGIDVNSRQYQVVMKDMMGALDGRAGYTTVSAIKNRMRQYNADGDY	0.19

Sequence	soluble fraction (log2)
HMHKPLRILVYEELRMLIMTGQIKPGTRMMEIDLAESMGVSRTPVREAIRQLEKDNLVTIEPRRGAYVSD	-0.761
HMPKHHIESVIPENFAGERLDKVLAVLWGTFSRAQLTRWIRDGSLLLDGHKVKPNTKVDGSEKIVLQAEVA	0.0479
HMDIRVAHVDDDMSFGEAFAQARSQVGPGGVFEWHGKLYGTYTAEEWASMSPAERSQYQQAVFN	0.105
HMGLVVIGTEAGYPAEKAGILAGDRIRKLNGAAVPDYDTFLTALAARKGEPSAIELERDGKTLEVTVSPL	-0.21
HMQTKNYVYFNNTENWSTVNVYVWSSKDSTYMSWPGKAMESIGNNTYRFELPNGAEYAIFNNGSAQTVD	-0.185
HMLTSAQLAEIRQAVRAGQASVVEDLLKNGASPNFRMENGDTGFTYAVRADTPQVAEALLKSGKL	-0.00206
HMTNLKALRESKGVSQQTVADYLGITRQAYGNYETGKRQADYAALLRLAAFFGVSVDALLQP	0.102
HMKSGLLNLSTRKQEKIKQALLSEFSNVSLLEAKVANIVTLAEISRGSFYTYFEDIYDAYQWLASI	0.22
HMEANAYFDAYPDVAAEWARLSGSDEGKATLSAIGVTTPQQFAQYHYTTFGSKENRNAPVGYTP	-0.47
HMGTTAWISTKTANGSVNIRTGPGTGYGVIGWALNGDKLEVLSRGTSWHYVKLVKNGKIGYVSASYVSFTQ	-0.399
HMEGLATRLRFLRQARGLSYHALARLSGVTHTALHQIEAGKNIPGLDTAEKIAMALDVDPRWFAYGRGDPS	-0.578
HMDEYGEVQALQRAGQTSEALARADRHIAAHPNDPQMRFVKANLLSAGGRAGEAETLLVQLTRD	-0.176
HMQTQVEVLVKYVLEDGTVYKEDKVSADIGAILDSGDLPMLSNDMKFIDDFLFYEVKESDNVIERKVAKLV	-1.41
HMKYRPGDVVTLRVARMGEMGAFLDAGTGNTNDDILLHKMQQTEEIKAGQDVKVYLYLDPNRRLTASMKL	-0.0269
HMLLNLSPIETQVLRLIQQDKKVTYESIGKELTIGQTKVYKVLGHLKELNVIERIGGRTYGHWHILL	-0.599
HMKVIETKYNTYVVKSGDTLYSVAKKYGISVTELKEINDLSNNTLSIGQKLLVPATTIIIDE	-0.525
HMFDDLSTNLRDLAHNYIEKYSPSKQQLKVFLLKKYLMKFKGSKTKKEISEIIDKIISNLEENKYLNDEL	0.179
HMLSDHGLNDRQIMVIAGLMNGGTVTVRSIESQYGVSLNTARADVKMLVDAGLLTETGREVNMKVYSWSGK	-0.22
HMDANLGEIFKVYEQEIGALTPFVREEMLDAIDHYPRDWILDAIRESAKSNARNWKYTLAILKRWKAEG	-0.507
HMAIDPLLDKGYEQYDKGEFTEAVKSFNRAIEIDPKNAEAHFLRAMTYQGLALSKLAVADLEKAIV	-0.127
HMASALDVALNDFAEMRKKMRKPLTDRALALTLSELEKLAPGNDEKKIAILNQSIQRGWQGVFPLK	0.0901
HMTMQTAEQESRLEQKLIDLSVGIDRFEGYSRPHGQLIASIADRIGTRLGMAAHDRFYMQQAAL	-0.0547
HMNLLQAHLLRLESAALLAEVREVDRQLSRWLHPLTPQSDVAIIDERNWEAAVARLTELGVHIEEGRW	-1.67
HMNDYIGVDRAKEIALNHARMNESDVQFAKAKLENDDGVVEYEIEFYFGRTEYDYTIDAVSGNIIEYDVEY	-0.0067
